According to article PMC5595344, “Interaction of the cyclic-di-GMP binding protein FimX and the Type 4 pilus assembly ATPase promotes pilus assembly” (PLoS Pathogens, 2017):

Legend:
PilB = PilB (Pseudomonas aeruginosa, UniProt P22608); conditions: 1 mM ATP; minimal activity
FimX = biological target: T1, FimX (Pseudomonas aeruginosa, UniProt Q9HUK6); experiment: surface plasmon resonance (BIAcore T100), FimX immobilized on CM5 chip; format: binding
T1 construct: dimer in solution (ca. 150 kDa by SEC)

[1] = biological target: the molecule itself; experiment: SEC; Superdex 200 10/300; 50 μM hexameric PilB and 50 μM dimeric FimX or FimX(AAA), 30 min at RT, 25 mM Tris pH 8, 150 mM NaCl, 5 mM MgCl2, 500 μM c-di-GMP; each protein also run alone; fractions on SDS-PAGE
[2] = biological target: the molecule itself; experiment: SEC; preparative SEC after affinity purification; Superdex 200 Increase, 25 mM Tris pH 8.0, 250 mM NaCl, 5 mM MgCl2, 5 mM β-mercaptoethanol

## Nc1ncnc2c1ncn2[C@@H]1O[C@H](COP(=O)(O)OP(=O)(O)OP(=O)(O)O)[C@@H](O)[C@H]1O [ATP]
PilB
  ATPase activity: PilB shows minimal ATPase activity in vitro that is not altered by addition of FimX

## Nc1nc2c(ncn2[C@@H]2O[C@@H]3CO[P@](=O)(O)O[C@H]4[C@@H](O)[C@H](n5cnc6c(=O)[nH]c(N)nc65)O[C@@H]4CO[P@](=O)(O)O[C@H]3[C@H]2O)c(=O)[nH]1 [c-di-GMP]
FimX
  Kd: 88 ± 5.6 nM

B1: 6X-His tagged FimX (natural protein)
chain: MAIEKKTIRLLILEDSQNEAERLVSLFRNAGHATRVHRLTSPEDLAETLQQSWDLLIAAPTSECLEPGEALATLRRQSRDIPFIQLVADNSSDAITDALMLGAQDALPQGEDERLVLVANRELAGLAERRARRAAELALREAEKRCQLLLDSSVDAITYVHDGMHIYANRSYMALFGYEDAEELEGLPVIDLIASCDQGAFKDFLKGYQNDQRQTELVCTGVKLDGQEFKARISLSAATYDGEPCIQVVIRGEVDNAELEEKLREVSSQDPVTGLYNRSHFLDLMDAAVQQAVTARKPSTLAYIHLNGYPSLQADHGLSGIDLLLGQLAGLMREQFGEEADLARFGDSIFAALFKGKTPEQAQAALQRLLKKVENHLFELNGRSAQATLSIGVAGLDEKTAKAQDVMNRAHRCADDAARKGGSQIKQYNPAEELAAAAQRGDVIAILQQALETNSFRLLFQPVISLRGDSHENYEVLLRLLNPQGQEVPPAEFLHAAKEAGLAEKIDRWVILNSIKLLAEHRAKGHQTKLFVHLSSASLQDPGLLPWLGVALKAARLPPESLVFQISEADATSYLKQAKQLTQGLATLHCQAAISQFGCSLNPFNALKHLTVQFIKIDGSFVQDLNQVENQEILKGLIAELHEQQKLSIVPFVESASVLATLWQAGATYIQGYYLQGPSQAMDYDFSSGDE
notes: also called dimeric FimX; purified FimX; source: purified as 6X-His tagged protein as described previously [17]
[1]
  stoichiometry N: 2

B2: 10XHis-MBP tagged recombinant PilT (natural protein)
chain: MDITELLAFSAKQGASDLHLSAGLPPMIRVDGDVRRINLPPLEHKQVHALIYDIMNDKQRKDFEEFLETDFSFEVPGVARFRVNAFNQNRGAGAVFRTIPSKVLTMEELGMGEVFKRVSDVPRGLVLVTGPTGSGKSTTLAAMLDYLNNTKYHHILTIEDPIEFVHESKKCLVNQREVHRDTLGFSEALRSALREDPDIILVGEMRDLETIRLALTAAETGHLVFGTLHTTSAAKTIDRVVDVFPAEEKAMVRSMLSESLQSVISQTLIKKIGGGRVAAHEIMIGTPAIRNLIREDKVAQMYSAIQTGGSLGMQTLDMCLKGLVAKGLISRENAREKAKIPENF
notes: also called hexameric PilT; source: E. coli BL21(DE3), purified (Ni-NTA, amylose resin, SEC)
[2]
  stoichiometry N: 6

B3: 10XHis-MBP tagged recombinant PilB (natural protein)
chain: MNDSIQLSGLSRQLVQANLLDEKTAVQAQAQAQRNKLSLVTHLVQSKLVSGLALAELSAEQFGIAYCDLNSLDKESFPRDAISEKLVRQHRVIPLWRRGNKLFVGISDPANHQAINDVQFSTGLTTEAILVEDDKLGLAIDKLFESATDGLAGLDDVDLEGLDIGSADKSTQEDASAEADDAPVVRFVNKMLLDAIKGGSSDLHFEPYEKIYRVRFRTDGMLHEVAKPPIQLASRISARLKVMAGLDISERRKPQDGRIKMRVSKTKSIDFRVNTLPTLWGEKIVMRILDSSSAQMGIDALGYEEDQKELYLAALKQPQGMILVTGPTGSGKTVSLYTGLNILNTTDINISTAEDPVEINLEGINQVNVNPRQGMDFSQALRAFLRQDPDVIMVGEIRDLETAEIAIKAAQTGHMVMSTLHTNSAAETLTRLLNMGVPAFNLATSVNLIIAQRLARKLCSHCKKEHEVPRETLLHEGFPEDKIGTFKLYSPVGCDHCKNGYKGRVGIYEVVKNTPALQRIIMEEGNSIEIAEQARKEGFNDLRTSGLLKAMQGITSLEEVNRVTKD
notes: also called hexameric PilB; purified PilB; source: E. coli BL21(DE3), purified (Ni-NTA, amylose resin, SEC)
[2]
  stoichiometry N: 6
